Assay results reported in article PMC4601027, “Structural Analysis of the Pin1-CPEB1 interaction and its potential role in CPEB1 degradation” (Scientific Reports, 2015).

Target: Pin1 WW domain
Assay: ITC titration of unphosphorylated CPEB1 N-terminal fragments with Pin1 WW domain
Format: binding
Conditions: Pin1 WW domain as titrant, fragment as titrate, titrations could not be efficiently saturated, data not shown
From the text: CPEB1 proteins display high sequence conservation in vertebrates (Supplementary Fig.1). To gain insight into the association of Pin1 with CPEB1 in the basal state, we prepared two recombinant fragments named NF1 (88–183) and NF2 (196–293), selected from the N-terminal region of CPEB1 (Fig. 1a). The boundaries of these constructs were chosen to be similar to that used by Nechama et al.[14], and were extended to include Ser210, known to be essential for degradation after phosphorylation by Cdc2[9]. Since target recognition of Pin1 is achieved by the interaction of the WW domain with the protein partners, we prepared an ^15N-labeled WW domain sample and monitored the chemical shift perturbations induced in the WW domain by the presence of the ligands (1:1 WW: ligand ratio) using HSQC experiments (Fig. 1b,c). These experiments reveal that, despite the low affinity associations, residues of the WW domain are clearly affected by the presence of the CPEB 1 fragments. Attempts to saturate the NMR titration using high ligand excess were precluded due to the aggregation tendency of the NF1 and NF2 fragments. […]
ITC measurements were performed using a nano ITC calorimeter (TA Instruments) at 12 °C or 25 °C. […] Protein concentration was measured in a NanoDrop™ 2000 measuring the UV absorption at 280 nm. Peptide concentration was determined by amino acid analysis. […]

Row | Molecule | binding affinity to Pin1 WW domain
1 | NF2: recombinant unphosphorylated fragment (196–293) of the N-terminal region of CPEB1 Isoform 1 (Uniprot Q9BZB8) (protein, UniProt Q9BZB8 196-293, looked up, fragment) DHLSDLISSLRISPPLPFLSLSGGGPRDPLKMGVGSRMDQEQAALAAVTPSPTSASKRWPGASVWPSWDLLEAPKDPFSIEREARLHRQAAAVNEATC | high μM up to the mM range
2 | NF1: recombinant unphosphorylated fragment (88–183) of the N-terminal region of CPEB1 Isoform 1 (Uniprot Q9BZB8) (protein, UniProt Q9BZB8 88-183, looked up, fragment) GLPDANDLCLGLQSLSLTGWDRPWSTQDSDSSAQSSTHSVLSMLHNPLGNVLGKPPLSFLPLDPLGSDLVDKFPAPSVRGSRLDTRPILDSRSSSP | high μM up to the mM range
